The text below walks through data of US20210017277A1 (US Dept. of Health and Human Services, published 2021).

The target in this test is T1, Biotinylated Human Siglec-3/CD33 Protein, Avi Tag (Acro Biosystems) (human, UniProt P20138 18-259, biotinylated (Avi Tag)).
T1 construct: Bought reagent; also called biotinalated Siglec-3; not shown: Avi Tag
Put plainly: flow cytometry: CAR-transduced T cells stained with biotinylated human Siglec-3/CD33 protein, then Streptavidin-PE. How it is done: Surface expression of CD33 CAR-transduced T cells was determined by flow cytometry using either protein-L (Themo Fisher) or a Biotinylated Human Siglec-3/CD33 Protein (Acro Biosystems, Newark, Del., USA) followed by incubation with Streptavidin-PE (BioLegend, San Diego, Calif., USA). CD123 CAR expression were detected with protein-L. Expression of CD33, CD123 and other cell surface markers were detected using the following antibodies from eBioscience (Thermo Fisher): CD33, CD45, CD3, CD8a, CD4, CD10.
For CD33 CAR detection with Biotinylated Human Siglec-3/CD33 Protein: CAR detection with: add 2 ul of Biotinylated Human Siglec-3/CD33 Protein, [Avi Tag (Avitag™) Acro Biosystems, Newark, Del., USA], incubate for 20 min, wash once and incubate with 0.5 μl of Streptavidin-PE, incubate for additional 10 min, wash once, subject for FACS analysis.
(Flow cytometry measures light scatter and fluorescence of single cells or particles in a stream.)

T1 sequence (P20138 18-259 limits assumed): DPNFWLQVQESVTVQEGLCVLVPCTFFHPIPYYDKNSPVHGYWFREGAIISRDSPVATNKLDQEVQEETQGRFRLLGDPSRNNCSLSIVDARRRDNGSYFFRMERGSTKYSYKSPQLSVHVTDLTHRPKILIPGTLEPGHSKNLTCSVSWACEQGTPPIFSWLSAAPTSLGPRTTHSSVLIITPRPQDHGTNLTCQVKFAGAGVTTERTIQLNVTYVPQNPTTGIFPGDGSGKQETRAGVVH

B1: CD33Hu195-CD28Z CAR (other)
chain: QVQLVQSGAEVKKPGSSVKVSCKASGYTFTDYNMHWVRQAPGQGLEWIGYIYPYNGGTGYNQKFKSKATITADESTNTAYMELSSLRSEDTAVYYCARGRPAMDYWGQGTLVTVSSGGGGSGGGGSGGGGSDIQMTQSPSSLSASVGDRVTITCRASESVDNYGISFMNWFQQKPGKAPKLLIYAASNQGSGVPSRFSGSGSGTDFTLTISSLQPDDFATYYCQQSKEVPWTFGQGTKVEIKSGAAAIEVMYPPPYLDNEKSNGTIIHVKGKHLCPSPLFPGPSKPFWVLVVVGGVLACYSLLVTVAFIIFWVRSKRSRLLHSDYMNMTPRRPGPTRKHYQPYAPPRDFAAYRSRVKFSRSADAPAYQQGQNQLYNELNLGRREEYDVLDKRRGRDPEMGGKPRRKNPQEGLYNELQKDKMAEAYSEIGMKGERRRGKGHDGLYQGLSTATKDTYDALHMQALPPR
notes: CAR on the surface of transduced human T cells; also called CD33.2-28z; CD33.2-CD28z
Turning to B1, the binding result is on record as “binds”.
